# T1: Human TROP2 Protein, His Tag (Acro Biosystems) (human, UniProt P09758 27-274)
# T1 construct: Bought protein; also called TACSTD2; not shown: His tag
# T1 sequence: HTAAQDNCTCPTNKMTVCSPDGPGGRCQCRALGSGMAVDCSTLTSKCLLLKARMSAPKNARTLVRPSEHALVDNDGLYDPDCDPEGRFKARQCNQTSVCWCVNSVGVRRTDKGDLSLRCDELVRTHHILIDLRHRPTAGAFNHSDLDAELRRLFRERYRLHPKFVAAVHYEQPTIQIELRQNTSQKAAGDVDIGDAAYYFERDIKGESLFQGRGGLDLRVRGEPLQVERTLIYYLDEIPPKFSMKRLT
# T2: TROP2 on TROP2-positive NCI-H1975 cells (human, UniProt P09758 27-323)
# T2 construct: whole, on cells
# T2 sequence (looked up): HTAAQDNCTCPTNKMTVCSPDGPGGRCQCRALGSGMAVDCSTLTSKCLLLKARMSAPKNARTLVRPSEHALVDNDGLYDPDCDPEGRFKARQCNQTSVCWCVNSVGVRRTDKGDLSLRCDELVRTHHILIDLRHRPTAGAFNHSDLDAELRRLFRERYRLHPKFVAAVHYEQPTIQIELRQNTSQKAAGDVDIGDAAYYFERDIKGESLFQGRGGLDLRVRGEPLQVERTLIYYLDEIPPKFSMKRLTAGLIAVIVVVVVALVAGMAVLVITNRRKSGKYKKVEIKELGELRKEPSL
# T3: Human TROP2 Protein, His Tag (Acro Biosystems) (human, UniProt P09758 27-274)
# T3 construct: not shown: His tag
# T3 sequence (looked up): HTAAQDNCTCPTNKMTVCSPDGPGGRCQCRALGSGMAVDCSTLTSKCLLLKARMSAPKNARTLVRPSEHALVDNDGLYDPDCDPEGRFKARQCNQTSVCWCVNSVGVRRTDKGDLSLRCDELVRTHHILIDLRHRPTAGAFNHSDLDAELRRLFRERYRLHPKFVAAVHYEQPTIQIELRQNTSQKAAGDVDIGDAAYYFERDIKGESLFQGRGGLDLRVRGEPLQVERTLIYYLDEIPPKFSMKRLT
# Assays:
# [1] = target: T1, Human TROP2 Protein, His Tag (Acro …); assay: BLI (Octet), antibody on anti-human Fc sensor, human TROP2-His in solution; legend: 3=No binding
# [2] = target: T2, TROP2 on TROP2-positive NCI-H1975 cells; assay: binding to TROP2-positive NCI-H1975 cells at pH 5.4
# [3] = target: T2, TROP2 on TROP2-positive NCI-H1975 cells; assay: binding to TROP2-positive NCI-H1975 cells at pH 6.7
# [4] = target: T2, TROP2 on TROP2-positive NCI-H1975 cells; assay: binding to TROP2-positive NCI-H1975 cells at pH 7.4
# [5] = target: T3, Human TROP2 Protein, His Tag (Acro …); assay: Octet (BLI); antigen and pH not given
Binder,binding result [1],IC50 [2],IC50 [3],IC50 [4],Kd [5],Octet response at 33.33 nM (Y-Axis) nm [5]
"MYT12413 (hu7E6SVG variant, HCV substitutions at 33, 106) (antibody, V domains shown) VH: QVQLQESGPGLVKPSETLSLTCTVSGGSISSYHVHWIRQPPGKGLEWIGVIWTSGVTDYNSALMGRVTISVDTSKNQFSLKLSSVTAADTAVYYCARDGDYDRYTHDYWGQGTLVTVSS VL: DIVMTQSPDSLAVSLGERATINCRASKSVSTSGYSYMHWYQQKPGQPPKLLIYLASNLESGVPDRFSGSGSGTDFTLTISSLQAEDVAVYYCQHSRELPYTFGQGTKLEIK",no binding (tested: 50 nM),,,,,
"MYT12456 (hu7E6SVG variant, LCV substitutions at 59, 60, 97) (antibody, V domains shown, Full IgG in Expi293 supernatant) VH: QVQLQESGPGLVKPSETLSLTCTVSGGSISSYGVHWIRQPPGKGLEWIGVIWTSGVTDYNSALMGRVTISVDTSKNQFSLKLSSVTAADTAVYYCARDGDYDRYTMDYWGQGTLVTVSS VL: DIVMTQSPDSLAVSLGERATINCRASKSVSTSGYSYMHWYQQKPGQPPKLLIYLASNLHHGVPDRFSGSGSGTDFTLTISSLQAEDVAVYYCQHSRHLPYTFGQGTKLEIK",no binding (tested: 50 nM),,,,,
"MYT12457 (hu7E6SVG variant, LCV substitutions at 59, 60, 101) (antibody, V domains shown, Full IgG in Expi293 supernatant) VH: QVQLQESGPGLVKPSETLSLTCTVSGGSISSYGVHWIRQPPGKGLEWIGVIWTSGVTDYNSALMGRVTISVDTSKNQFSLKLSSVTAADTAVYYCARDGDYDRYTMDYWGQGTLVTVSS VL: DIVMTQSPDSLAVSLGERATINCRASKSVSTSGYSYMHWYQQKPGQPPKLLIYLASNLHHGVPDRFSGSGSGTDFTLTISSLQAEDVAVYYCQHSRELPYHFGQGTKLEIK",no binding (tested: 50 nM),,,,,
"MYT12458 (hu7E6SVG variant, LCV substitutions at 59, 93, 94 (Ala at 94)) (antibody, V domains shown, Full IgG in Expi293 supernatant) VH: QVQLQESGPGLVKPSETLSLTCTVSGGSISSYGVHWIRQPPGKGLEWIGVIWTSGVTDYNSALMGRVTISVDTSKNQFSLKLSSVTAADTAVYYCARDGDYDRYTMDYWGQGTLVTVSS VL: DIVMTQSPDSLAVSLGERATINCRASKSVSTSGYSYMHWYQQKPGQPPKLLIYLASNLHSGVPDRFSGSGSGTDFTLTISSLQAEDVAVYYCHASRELPYTFGQGTKLEIK",no binding (tested: 50 nM),,,,,
"MYT12460 (hu7E6SVG variant, LCV substitutions at 59, 93, 101) (antibody, V domains shown, Full IgG in Expi293 supernatant) VH: QVQLQESGPGLVKPSETLSLTCTVSGGSISSYGVHWIRQPPGKGLEWIGVIWTSGVTDYNSALMGRVTISVDTSKNQFSLKLSSVTAADTAVYYCARDGDYDRYTMDYWGQGTLVTVSS VL: DIVMTQSPDSLAVSLGERATINCRASKSVSTSGYSYMHWYQQKPGQPPKLLIYLASNLHSGVPDRFSGSGSGTDFTLTISSLQAEDVAVYYCHHSRELPYHFGQGTKLEIK",no binding (tested: 50 nM),,,,,
"MYT12461 (hu7E6SVG variant, LCV substitutions at 59, 94, 97 (Ala at 94)) (antibody, V domains shown, Full IgG in Expi293 supernatant) VH: QVQLQESGPGLVKPSETLSLTCTVSGGSISSYGVHWIRQPPGKGLEWIGVIWTSGVTDYNSALMGRVTISVDTSKNQFSLKLSSVTAADTAVYYCARDGDYDRYTMDYWGQGTLVTVSS VL: DIVMTQSPDSLAVSLGERATINCRASKSVSTSGYSYMHWYQQKPGQPPKLLIYLASNLHSGVPDRFSGSGSGTDFTLTISSLQAEDVAVYYCQASRHLPYTFGQGTKLEIK",no binding (tested: 50 nM),,,,,
"MYT12462 (hu7E6SVG variant, LCV substitutions at 59, 94, 101 (Ala at 94)) (antibody, V domains shown, Full IgG in Expi293 supernatant) VH: QVQLQESGPGLVKPSETLSLTCTVSGGSISSYGVHWIRQPPGKGLEWIGVIWTSGVTDYNSALMGRVTISVDTSKNQFSLKLSSVTAADTAVYYCARDGDYDRYTMDYWGQGTLVTVSS VL: DIVMTQSPDSLAVSLGERATINCRASKSVSTSGYSYMHWYQQKPGQPPKLLIYLASNLHSGVPDRFSGSGSGTDFTLTISSLQAEDVAVYYCQASRELPYHFGQGTKLEIK",no binding (tested: 50 nM),,,,,
"MYT11635 (antibody, human IgG1, V domains shown, IgG; also called Datopotamab WT; Datopotamab) VH: QVQLVQSGAEVKKPGASVKVSCKASGYTFTTAGMQWVRQAPGQGLEWMGWINTHSGVPKYAEDFKGRVTISADTSTSTAYLQLSSLKSEDTAVYYCARSGFGSSYWYFDVWGQGTLVTVSS VL: DIQMTQSPSSLSASVGDRVTITCKASQDVSTAVAWYQQKPGKAPKLLIYSASYRYTGVPSRFSGSGSGTDFTLTISSLQPEDFAVYYCQQHYITPLTFGQGTKLEIK",,0.48 nM,0.54 nM,0.51 nM,1.25 nM,0.13 nm
"MYT11670 (antibody, human IgG1, V domains shown, IgG) VH: QVQLVQSGAEVKKPGASVKVSCKASGYTFTTAGMQWVRQAPGQGLEWMGWINTHSGVPKYAEDFKGRVTISADTSTSTAYLQLSSLKSEDTAVYYCARSGFGSHYWYFDVWGQGTLVTVSS VL: DIQMTQSPSSLSASVGDRVTITCKASQDVSTAVAWYQQKPGKAPKLLIYSASYRYTGVPSRFSGSGSGTDFTLTISSLQPEDFAVYYCQQHYITPLTFGQGTKLEIK",,1.83 nM,1.42 nM,1.61 nM,10.9 nM,0.0891 nm
"MYT11699 (antibody, V domains shown, IgG; also called Datopotamab LC variant) VH: QVQLVQSGAEVKKPGASVKVSCKASGYTFTTAGMQWVRQAPGQGLEWMGWINTHSGVPKYAEDFKGRVTISADTSTSTAYLQLSSLKSEDTAVYYCARSGFGSSYWYFDVWGQGTLVTVSS VL: DIQMTQSPSSLSASVGDRVTITCKASQDVSTAVAWYQQKPGKAPKLLIYSASYRYTGVPSRFSGSGSGTDFTLTISSLQPEDFAVYYCQQHYHTPLTFGQGTKLEIK",,4.58 nM,1.16 nM,0.73 nM,3.52 nM,0.0968 nm
"MYT11704 (antibody, human IgG1, V domains shown, IgG; also called hu7E6SVG WT; hu7E6SVG) VH: QVQLQESGPGLVKPSETLSLTCTVSGGSISSYGVHWIRQPPGKGLEWIGVIWTSGVTDYNSALMGRVTISVDTSKNQFSLKLSSVTAADTAVYYCARDGDYDRYTMDYWGQGTLVTVSS VL: DIVMTQSPDSLAVSLGERATINCRASKSVSTSGYSYMHWYQQKPGQPPKLLIYLASNLESGVPDRFSGSGSGTDFTLTISSLQAEDVAVYYCQHSRELPYTFGQGTKLEIK",,1.29 nM,0.97 nM,0.98 nM,4.4 nM,0.118 nm
"MYT12459 (antibody, human IgG1, V domains shown, IgG; also called hu7E6SVG LCC his scan variant) VH: QVQLQESGPGLVKPSETLSLTCTVSGGSISSYGVHWIRQPPGKGLEWIGVIWTSGVTDYNSALMGRVTISVDTSKNQFSLKLSSVTAADTAVYYCARDGDYDRYTMDYWGQGTLVTVSS VL: DIVMTQSPDSLAVSLGERATINCRASKSVSTSGYSYMHWYQQKPGQPPKLLIYLASNLHSGVPDRFSGSGSGTDFTLTISSLQAEDVAVYYCHHSRHLPYTFGQGTKLEIK",,~30 nM,1.67 nM,1.42 nM,6.02 nM,0.0906 nm
"MYT11566 (antibody, human IgG1, V domains shown, IgG; also called Sacituzumab WT; Sacituzumab) VH: QVQLQQSGSELKKPGASVKVSCKASGYTFTNYGMNWVKQAPGQGLKWMGWINTYTGEPTYTDDFKGRFAFSLDTSVSTAYLQISSLKADDTAVYFCARGGFGSSYWYFDVWGQGSLVTVSS VL: DIQLTQSPSSLSASVGDRVSITCKASQDVSIAVAWYQQKPGKAPKLLIYSASYRYTGVPDRFSGSGSGTDFTLTISSLQPEDFAVYYCQQHYITPLTFGAGTKVEIK",,1.15 nM,0.94 nM,1.05 nM,0.6 nM,0.157 nm
"MYT11614 (antibody, human IgG1, V domains shown, IgG; also called Sacituzumab LC variant) VH: QVQLQQSGSELKKPGASVKVSCKASGYTFTNYGMNWVKQAPGQGLKWMGWINTYTGEPTYTDDFKGRFAFSLDTSVSTAYLQISSLKADDTAVYFCARGGFGSSYWYFDVWGQGSLVTVSS VL: DIQLTQSPSSLSASVGDRVSITCKASQDVHIAVAWYQQKPGKAPKLLIYSASYRYTGVPDRFSGSGSGTDFTLTISSLQPEDFAVYYCQQHYITPLTFGAGTKVEIK",,~5 nM,1.06 nM,0.82 nM,0.75 nM,0.149 nm
"MYT13369 (antibody, human IgG1, V domains shown, IgG; also called Sacituzumab HC-LC pairing variant) VH: QVQLQQSGSELKKPGASVKVSCKASGYTFTNYGMNWVKQAPGQGLKWMGWINTYTGEPTYTHDFKGRFAFSLDTSVSTAYLQISSLKADDTAVYFCARGGFGSSYWYFDVWGQGSLVTVSS VL: DIQLTQSPSSLSASVGDRVSITCKASQDVHIAHAWYQQKPGKAPKLLIYSASYRYTGVPDRFSGSGSGTDFTLTISSLQPEDFAVYYCQQHYITPLTFGAGTKVEIK",,~25 nM,1.02 nM,0.63 nM,0.14 nM,0.167 nm
"MYT13370 (antibody, human IgG1, V domains shown, IgG; also called Sacituzumab HC-LC pairing variant) VH: QVQLQQSGSELKKPGASVKVSCKASGYTFTNYGMNWVKQAPGQGLKWMGWINTYTGEPTYTDHFKGRFAFSLDTSVSTAYLQISSLKADDTAVYFCARGGFGSSYWYFDVWGQGSLVTVSS VL: DIQLTQSPSSLSASVGDRVSITCKASQDVHIAHAWYQQKPGKAPKLLIYSASYRYTGVPDRFSGSGSGTDFTLTISSLQPEDFAVYYCQQHYITPLTFGAGTKVEIK",,~45 nM,1.86 nM,0.84 nM,1.36 nM,0.155 nm

# Source: patent publication US20260274985A1 (MYTHIC THERAPEUTICS, published 2026)
